Substitutions are numbered along the chain they refer to.
Assays:
[1] = target: T1, TLR3 ectodomain Mut10 (mouse, UniProt Q99MB1 26-705, S116E;Q118E;K138E;K140E;N142E;K145E;N146E); test: cryo-EM 3D reconstruction; dimer identical to WT; Protein in 25 mM MES-NaOH pH 5.3, 0.2-0.3 M NaCl (purification buffer); complex formation conditions not in the material; details: protein: recombinant; tags: C-terminal FLAG-His6; chain copies: 2; blunt
T1 sequence: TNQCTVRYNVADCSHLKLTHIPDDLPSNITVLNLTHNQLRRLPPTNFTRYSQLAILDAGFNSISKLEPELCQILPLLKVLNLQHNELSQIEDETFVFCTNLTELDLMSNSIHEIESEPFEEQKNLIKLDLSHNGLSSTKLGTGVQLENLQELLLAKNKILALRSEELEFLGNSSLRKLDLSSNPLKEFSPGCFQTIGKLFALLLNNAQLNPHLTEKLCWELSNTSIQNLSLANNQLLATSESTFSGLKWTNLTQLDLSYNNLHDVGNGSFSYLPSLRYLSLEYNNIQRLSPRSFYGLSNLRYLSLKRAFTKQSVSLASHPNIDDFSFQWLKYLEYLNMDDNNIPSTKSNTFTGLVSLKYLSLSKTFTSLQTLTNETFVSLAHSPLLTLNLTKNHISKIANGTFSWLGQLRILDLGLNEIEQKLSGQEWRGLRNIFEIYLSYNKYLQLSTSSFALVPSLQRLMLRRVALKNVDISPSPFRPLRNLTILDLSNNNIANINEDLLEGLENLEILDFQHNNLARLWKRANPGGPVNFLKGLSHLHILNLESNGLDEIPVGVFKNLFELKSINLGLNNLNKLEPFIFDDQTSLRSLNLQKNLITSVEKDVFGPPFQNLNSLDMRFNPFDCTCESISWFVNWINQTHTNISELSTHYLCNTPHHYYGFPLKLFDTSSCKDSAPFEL

[2] = target: T2, TLR3 ectodomain WT (mouse, UniProt Q99MB1 26-705); test: cryo-EM structure; two TLR3 dimers laterally aligned along dsRNA; Protein in 25 mM MES-NaOH pH 5.3, 0.2-0.3 M NaCl (purification buffer); complex formation conditions not in the material; details: protein: recombinant; tags: C-terminal FLAG-His6; chain copies: 4; blunt
T2 sequence: T1 sequence with E91S, E93Q, E113K, E115K, E117N, E120K, E121N

B1: 46 bp dsRNA (dsRNA)
RNA 1: AUUCUGCGGAUUAUUUGGCAAAGGAAGCAUUGACACAUGCGCCAAU
RNA 2: AUUGGCGCAUGUGUCAAUGCUUCCUUUGCCAAAUAAUCCGCAGAAU
modifications: 2'-O-methyl at strand 1 positions 10-15 and 36-41 (lower case); complement modifications not stated
B1: binds [1].

B2: 90 bp dsRNA (dsRNA)
RNA 1: AUUCUGCGGAUUAUUUGGCAAAGGAAGCAUUGACACAUGCGCCAAUUCUGCGGAUUAUUUGGCAAAGGAAGCAUUGACACAUGCGCCAAU
RNA 2: AUUGGCGCAUGUGUCAAUGCUUCCUUUGCCAAAUAAUCCGCAGAAUUGGCGCAUGUGUCAAUGCUUCCUUUGCCAAAUAAUCCGCAGAAU
modifications: 2'-O-methyl at strand 1 positions 10-15 and 80-85 (lower case); complement modifications not stated
B2: binds [2].
